This series can be described thus: soluble fraction after stress (log2 fold change); higher = more stays soluble; pooled small domains, quantitative proteomics. Conditions: stress: 50 degC. Put shortly:
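Pooled custom libraries of small protein domains were each held under stress at 50°C. The read-out, high-throughput quantitative proteomics, tracked how much of each protein stayed soluble. This is reported as a base-two log fold change used to indicate aggregation propensity. Higher values mean more protein remains in solution.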

Take “HMGEIHALIPGLVSRLFVKPGDRVENGQGLLILEAMKMENEIDSPISGVVGKIYIKAGDKVEKGELIMEIN”: the “soluble fraction (log2)” value was -0.46.

As to “HMSTVTEVHYIAFKNGRIVDIKAALTGSAVTATSIKEQPKIENYNYTTSEVRDGILYHTYAPVA”, the “soluble fraction (log2)” value was -1.32.

For “HMNGLDSVLRNWARQTLASGGENLLGDLTDHVTRLIISEALIMTGGNRTRAAELLGLSRPTLLAKMDKLNL”, the “soluble fraction (log2)” value was -1.45.

In the case of “HMDTRKKLEQIFKLFDKTGTGMVNIDEFKSVLKLFMEEIDEKFGNYFIAYFDENGDGKIEFEEFADVVL”, the “soluble fraction (log2)” value is -0.0635.

As to “HMEEQELQLIQFPIASGSAWAGKAVRELILPPETLLVMLIRGTETMIPKGDTMVQEGDTAVLSASAYRDD”, the “soluble fraction (log2)” value is -0.434.

In the case of “HMNEWVSVEERLPTDERPVLAFIGYADTMNGFITTSYYFRFDPDPHWLGEGLIPVGLKTLFWMPLPAP”, the “soluble fraction (log2)” value is -0.0149.

On to “HMAYVDWYENKQPTHEEAFKKLLGRIHPGAIVLLHSTSKTNGEILDELLTKWEEMGYRFGTLDELTGN”, for which the “soluble fraction (log2)” value was -1.18.

Consider “HMPDYYAILEVERTADAKTIKAAYRKLALAYHPDRNPGDQAAEERFKQINEAYAVLSDPEKRARYDRYGSV”, for which the “soluble fraction (log2)” value is -0.31.

For “HMEDHMVVFGKGGRITRLPDKATVLEYLDAANFFASRSSVVKVNGKLASLDQTLRDGDSIEIVD”, the “soluble fraction (log2)” value was -0.183.

Turning to “HMTLDEDYFYYTLKAKEGYYRLYKKLGVDRKIIDSLNPNLKEMGLQVGMVIRVPKSQTSDLSVKNSLLVE”, the “soluble fraction (log2)” value was -1.4.

As to “HMQSNDTAEIEAVVKEIMAANERVVNDYRSGNTKVVSFFVGQVMKATKGKANPKVVNEVLAKLLK”, the “soluble fraction (log2)” value stood at 0.0929.

“HMLSDHGLNDRQIMVIAGLMNGGTVTVRSIESQYGVSLNTARADVKMLVDAGLLTETGREVNMKVYSWSGK”: the “soluble fraction (log2)” value is -2.

With “HMNLGETIYNLRKEKKLSQGDLAEQLSVSRQSVSKWENNSAVPDLDKLVKLSTIFGVSLDELVKG”, the “soluble fraction (log2)” value was determined as 0.0247.

“HMKGSPFSQLPKEKKKRILQAAIEVFAQNDYKHASTDEIASRAGISKGLLFYYFHDKKTLYFYLGEYLKR”: the “soluble fraction (log2)” value was -0.0373.

As for “HMSVPVDEVLAALTQKLTDLRTQAMAAKDFSAVDALKAALTEAGVEVRMSKTGVELIAGPRVDAKKLGTL”, the “soluble fraction (log2)” value is -0.03.

As for “HMSTMTEQEAFGLWERINDFIARTGNEPNRNSNDAHEVRMAEALNFIRIKVAEQRNSQSNSEAQNN”, the “soluble fraction (log2)” value was -0.0168.

Consider “HMDGNVPSVEGKPLSGAKYILETYGYKTGTVTEVNSEDVPAGIVISQNPARGTTLANGGSVNLQVSLG”, for which the “soluble fraction (log2)” value came out at 0.321.

Turning to “HMKRAVGLDEYRDSIVLKKPEGYTEESYAAYKNAYDALMALDSKETTAEMFANAKSAFEAAQAGLVQKP”, the “soluble fraction (log2)” value was 0.101.

Turning to “HMISKRFQIDEDNSNKRIDIFLTQSLDSISRGIVQQLILENKVEVNGGPVKRNYLIKIGDVIDVKIDL”, the “soluble fraction (log2)” value is -0.939.

Turning to “HMPGLITLEAAKTTALNHAKLTADQVTFVKQKLDRDDGRQVYEIEFYTSDYKEYDYEIDAVSGLILEVDYD”, the “soluble fraction (log2)” value is -0.671.

In the case of “HMRKDYTVLYSAVNAEEATEIVSKLQESGVAYQYKDNGDVLVDKKQVDKVRAQLAQEGYPKS”, the “soluble fraction (log2)” value turned out to be 0.164.

Regarding “HMDNEIIEEEKITTLMITHNMRDAIKYGNRLIMLNEGRVIFDISGEEKKNLTVQELLEKFEK”, the “soluble fraction (log2)” value was -0.118.

Consider “HMSKKIVLPAAITVKKFSETLDMPLGTVISELMKNGILATINERIDFETASIIAQDLGYEVSEEV”, for which the “soluble fraction (log2)” value was 0.173.

In the case of “HMLENSLDHIEGIGPKTKDTLLTYFKSVSKIKSANPSILAELIGAAKTKILLAAFEKEKTTS”, the “soluble fraction (log2)” value is -0.017.

For the sequence “HMETYHIQMKGDPSKGIVGFSQLDMVIDKIKRLETEKGIAPYELEVLDGDTMEKYSGEEFLTMHE”, the “soluble fraction (log2)” value stood at 0.0939.

As for “HMRNMTDYLTIVRAVYGGLSQRQAATTYHVSRNTVSLLIRHAKNQGWLTVEDLSRADAAAFSPA”, the “soluble fraction (log2)” value is -0.517.

In the case of “HMKLTALWTANPKISAPIYSEPSTQSKTLGRIYQGASVKVYSFDPEWAYINSSGVVGYVLRRHLE”, the “soluble fraction (log2)” value was -0.323.

For “HMSDPHEELMSRIARDLSIPLTRVVAEMNTIISKEFGGHIRPEGAVVILAKRSGVEFSDLLPALRENILK”, the “soluble fraction (log2)” value was -1.05.

“HMWVETITTKAGITKYKFQERYTDTYSGKTKRVSVTYTSNSRQAYKLAQAELQKKIDLATNTD”: the “soluble fraction (log2)” value is -0.849.

On to “HMRKNVAGITPNVYGMGLKDAVYLLENAGYRVKVNGRGNVVRQSINSGTRIIKGQLIILDLD”, for which the “soluble fraction (log2)” value was -2.73.

Consider “HMFASSADGVEGLKTNPIFASTKEKSDAGKLLYTRYLAIGIFRMLELAKATDPKALEALVEAGG”, for which the “soluble fraction (log2)” value amounted to 0.0895.

For the sequence “HMRQIRELFRLKFGSLLPTSDRQIAAQLGVARSTVAEYLERARAAGLSWPLPLDLSDADLEERLFA”, the “soluble fraction (log2)” value was -2.75.

As to “HMQGIPVTVTAERANLRSGPGTSFDKLGQVVQGDVLTLLEVQNDWYKVKTAEGKTAFVAAYLVNSP”, the “soluble fraction (log2)” value came out at 0.0205.

“HMTIGIGKSLDFNTSGEKAYRIYNFKGAYVGTFKASDMTSLKNEVQKSNVKAGAYMVRSLDGHVNRLIEIK”: the “soluble fraction (log2)” value is -0.681.

Regarding “HMAVGDMISKLRTAANMSQEQFAELFGVTRQSVQKWENSFSVPELEKLIKISKYFDVSLDALVLRSDARVT”, the “soluble fraction (log2)” value is -1.06.

On to “HMTMIIQLDKNITQEQRQFLVEELNRLSISPNFVSTQFTNYIVGIPKKEFDIRLIGNLPGIADIHFV”, for which the “soluble fraction (log2)” value was -0.183.

As for “HMRVELVVVPELRQQLLPEARELANSAGLQLRVRGQSPADETRTIVVTQSPAAGTRVAARSIVLVE”, the “soluble fraction (log2)” value is -0.539.

For the sequence “HMDRADIDAVDAEWVRATMERLGLRAKHIESHTGISKSTLSILLNGHRPLTRWHKIAFYYLFKHIEF”, the “soluble fraction (log2)” value was -2.68.

In the case of “HMSKPVFQTHSVRSADSATVFDVLQTLLAGTPDARIAIDPKTNAIVAWARPETQEVIAKSIMEMEG”, the “soluble fraction (log2)” value came to 0.0132.

For “HMRKTYHVDAYQDDKWWVLQVQEMPNAISQVKSLDQADEWIREAINIVSNEPEDSFDVVIIPV”, the “soluble fraction (log2)” value was -0.612.

As for “HMIDDPTAVILRLVSEKQVIRRDDVVKALSVTPQKAYRLLKTMTTGGLLTRSGARRTTVYGLPDARER”, the “soluble fraction (log2)” value is -0.0945.

Turning to “HMTDSSEILEAALKEAEDAAHEVLNGTFSVQLEPQKAYIRRLQHMLIDRMNLSSTSKGKEPYRSLLVYR”, the “soluble fraction (log2)” value was -1.11.

Regarding “HMETVSFNPDIAVIPDYRHVVILGETTKTIANKYDIPVDILKAANPGLGNNVTKGDRLRVPDKTKLQ”, the “soluble fraction (log2)” value worked out at 0.155.

Regarding “HMDYKSKLQELVQTEKRTVEYKLVDESGPAHNKSFTFEVVISGIKYGSGTGASKKIAEQNAAKEALEKLA”, the “soluble fraction (log2)” value was -0.0871.

With “HMYPTPAAANRHFLDKWGHQEAYLGKVLNSRSRASEILNGKRPLSLSDLRTLRDNLGIPVDLLL”, the “soluble fraction (log2)” value was -0.489.

For “HMKPNEYVSGETFPYLGKNYRLKVLHGSENSVRLKGGYFITTISNRDSQLSTVKSLLEDWYQTHADK”, the “soluble fraction (log2)” value came out at 0.0439.

Regarding “HMDSAMMDLVMRVQLALFTKGYDVGIIDGKIGPKTRAQIKRYQSDNRLSSTGTLTTSLLTSLGIQ”, the “soluble fraction (log2)” value was -1.88.

As for “HMENKIIKNAAHATLKVKKDAGIEITTELIREAVILFHRIYSPNDNPNINWERIINELESHYT”, the “soluble fraction (log2)” value was -2.77.

As to “HMEIFSIEPDSYLGSGEEIASYYREGVTVIVNMAKLSDAESLRMVDFMSGLKLALLGNIKRITKHVYLLTP”, the “soluble fraction (log2)” value was -0.0901.

Regarding “HMSNHYETLGVEQTASVDEIKKAYRRLSLQYHPDRNTTSDAVGKFQKINDAHEILSDKQSRTEYDMQLK”, the “soluble fraction (log2)” value came to 0.214.

The values are drawn from the domain aggregation screens of Martell et al. (2025).
